Measured values taken from US20200384083A1 (SINGAPORE HEALTH SERVICES PTE, published 2020).

Tests used:
mouse IL-11Rα (Il11ra1) = target: T1, mouse IL-11Rα (Il11ra1) (mouse, UniProt Q64385 24-372, limits assumed); experiment: BLI, Octet (ForteBio)
T1 construct: also called mouse Il11ra1
T1 sequence (looked up): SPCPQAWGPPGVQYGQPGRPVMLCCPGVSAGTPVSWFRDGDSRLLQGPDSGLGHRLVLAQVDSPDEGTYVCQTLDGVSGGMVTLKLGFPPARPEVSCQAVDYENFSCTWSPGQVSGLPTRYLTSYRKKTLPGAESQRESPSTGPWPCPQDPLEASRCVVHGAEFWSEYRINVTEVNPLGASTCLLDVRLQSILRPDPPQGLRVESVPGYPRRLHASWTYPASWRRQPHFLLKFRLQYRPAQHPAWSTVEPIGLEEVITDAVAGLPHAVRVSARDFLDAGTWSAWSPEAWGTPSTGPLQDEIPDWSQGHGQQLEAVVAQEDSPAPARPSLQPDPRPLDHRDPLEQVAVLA

[1] = target: T2, human IL11RA (analyte in the Biacore assay) (human, UniProt Q14626 23-370, limits assumed); experiment: SPR, Biacore T200; X209 captured on an anti-mouse chip, human IL11RA as analyte (1.56 nM to 100 nM), 1:1 Langmuir fit
T2 construct: also called IL-11Rα
T2 sequence: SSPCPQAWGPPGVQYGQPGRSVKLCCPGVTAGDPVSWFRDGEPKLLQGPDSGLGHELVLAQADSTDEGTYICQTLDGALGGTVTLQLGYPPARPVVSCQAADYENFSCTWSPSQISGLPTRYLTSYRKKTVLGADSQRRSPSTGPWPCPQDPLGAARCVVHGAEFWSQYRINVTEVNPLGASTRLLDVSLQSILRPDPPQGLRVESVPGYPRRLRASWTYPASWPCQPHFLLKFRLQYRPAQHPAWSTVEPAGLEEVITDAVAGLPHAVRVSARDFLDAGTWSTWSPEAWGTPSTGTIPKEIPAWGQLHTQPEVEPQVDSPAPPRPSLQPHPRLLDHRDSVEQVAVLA
Method: (§1) Binding of X209 to human IL11RA was measured on Biacore T200 (GE Healthcare). X209 was immobilized onto an anti-mouse capture chip. Interaction assays were performed with HEPES-buffered saline pH 7.4 containing 0.005% P20 and 0.5% BSA. A concentration range (1.56 nM to 100 nM) of the analyte (human IL11 RA) was injected over X209 and reference surfaces at a flow rate of 40 μl min⁻¹. Binding to mouse 1111ra1 was confirmed on Octet system (ForteBio) using a similar strategy. All sensograms were aligned and double-referenced⁴. Affinity and kinetic constants were determined by fitting the corrected sensorgrams with 1:1 Langmuir model. The equilibrium binding constant KD was determined by the ratio of kd/kₐ.

[2] = target: T2, human IL11RA (analyte in the Biacore …); experiment: SPR (Biacore T200): X209 captured on an anti-mouse capture chip, human IL11RA injected as analyte at 1.56 nM to 100 nM, 1:1 Langmuir fit
Method: as §1

B1: mouse anti-mouse IL-11Rα IgG X209 (antibody, V domains shown)
VH: QVQLQQPGAELVRPGSSVKLSCKASGYTFTNYWMHWLKQRPVQGLEWIGNIGPSDSKTHYNQKFKDKATLTVDKSSSTAYMQLNSLTSEDSAVYYCARGDYVLFTYWGQGTLVTVSA
VL: DIVLTQSPATLSLSPGERATLSCRASQSISNNLHWYQQKSHEAPRLLIKYASQSISGIPARFSGSGSGTDFTLSFSSLETEDFAVYFCQQSYSWPLTFGQGTKLEIK
notes: also called Enx209; neutralizing anti-IL11RA
Question: Which results are given for B1?
Answer: binding result (mouse IL-11Rα (Il11ra1)): binds; Kd [1]: 6 nM; Kd [2]: 6.01 nM; koff [2]: 0.000757 s⁻¹; kon [2]: 126000 M⁻¹ s⁻¹
